In general, stoichiometry N refers to the number of molecules, sites or subunits per partner or assembly.

For data set [1], the system named is T1, AzuR (Anabaena sp. strain PCC 7120), ORF:06435f25.
T1 sequence: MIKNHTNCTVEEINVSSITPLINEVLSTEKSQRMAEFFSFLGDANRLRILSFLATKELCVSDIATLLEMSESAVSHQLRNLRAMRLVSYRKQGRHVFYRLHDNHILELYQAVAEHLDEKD
Nature of the data set: EMSA. The following applies: 20 mM Tris-Cl pH 7.5, 1 mM EDTA, 20 ul, RT 30 min; 10% native PAGE in 0.5x TBE. Background: In EMSA bound probe runs differently from free probe, usually more slowly.

In data set [2] the test system is T2, AnLexA (Anabaena sp. strain PCC 7120), ORF:0695c96d.
T2 sequence: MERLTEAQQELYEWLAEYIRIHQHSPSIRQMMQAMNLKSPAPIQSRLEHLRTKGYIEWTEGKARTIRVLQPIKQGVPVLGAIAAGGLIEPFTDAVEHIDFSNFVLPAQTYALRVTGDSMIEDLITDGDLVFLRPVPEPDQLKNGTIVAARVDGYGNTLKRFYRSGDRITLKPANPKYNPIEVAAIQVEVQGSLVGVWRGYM
Kind of data set: EMSA. As to conditions: 20 mM Tris-Cl pH 7.5, 1 mM EDTA, 20 ul, RT 30 min; 10% native PAGE in 0.5x TBE.

Data set [3] concerns the target AzuR (Alr0831) (Anabaena sp. strain PCC 7120). Nature of the data set: SEC; Superdex 75, 20 mM Tris, 100 mM NaCl, pH 7.5, 25 °C, 0.5 ml/min; calibrated with gel filtration markers.
The target is the same in data set [4]. Kind of data set: cross-linking; purified AzuR (5 ug) with 10 mM glutaraldehyde, room temperature, 10-15 min, 10 mM Tris pH 7.5; cracking buffer without DTT; 15% SDS-PAGE, Coomassie.

With “AAACGTATTATATAACCTAATTGTTACATTTTATTAAGCAATACTTGAACATCTGTTCAGGTATTGTAGTGTAATCACAAGTGAAAACGGAGGAAATAAT (double strand) [PnmtA (100 bp upstream of nmtA ORF)]”, the binding entry is recorded as “binds” in data set [1] and “no binding” in data set [2].
Turning to AzuR (Alr0831) (natural protein), the stoichiometry N in data set [3] and in data set [4] was 2 each time.

For the origin of these results see publication PMC8790569.
